# Assay results from patent US12099068B2, “Biomarkers for graft-versus-host disease” (Incyte Corporation, priority 2018, dated 2024).
# B1: FCGR2A (protein, UniProt P12318 34-317, looked up)
# Low affinity immunoglobulin …: QAAAPPKAVLKLEPPWINVLQEDSVTLTCQGARSPESDSIQWFHNGNLIPTHTQPSYRFKANNNDSGEYTCQTGQTSLSDPVHLTVLSEWLVLQTPHLEFQEGETIMLRCHSWKDKPLVKVTFFQNGKSQKFSHLDPTFSIPQANHSHSGDYHCTGNIGYTLFSSKPVTITVQVPSMGSSSPMGIIVAVVIATAVAAIVAAVVALIYCRKKRISANSTDPVKAAQFEPPGRQMIAIRKRQLEETNNDYETADGGYMTLNPRAPTDDDKNIYLTLPPNDHVNSNN
# B2: ITGB5 (protein, UniProt P18084 24-799, looked up)
# Integrin beta-5: GLNICTSGSATSCEECLLIHPKCAWCSKEDFGSPRSITSRCDLRANLVKNGCGGEIESPASSFHVLRSLPLSSKGSGSAGWDVIQMTPQEIAVNLRPGDKTTFQLQVRQVEDYPVDLYYLMDLSLSMKDDLDNIRSLGTKLAEEMRKLTSNFRLGFGSFVDKDISPFSYTAPRYQTNPCIGYKLFPNCVPSFGFRHLLPLTDRVDSFNEEVRKQRVSRNRDAPEGGFDAVLQAAVCKEKIGWRKDALHLLVFTTDDVPHIALDGKLGGLVQPHDGQCHLNEANEYTASNQMDYPSLALLGEKLAENNINLIFAVTKNHYMLYKNFTALIPGTTVEILDGDSKNIIQLIINAYNSIRSKVELSVWDQPEDLNLFFTATCQDGVSYPGQRKCEGLKIGDTASFEVSLEARSCPSRHTEHVFALRPVGFRDSLEVGVTYNCTCGCSVGLEPNSARCNGSGTYVCGLCECSPGYLGTRCECQDGENQSVYQNLCREAEGKPLCSGRGDCSCNQCSCFESEFGKIYGPFCECDNFSCARNKGVLCSGHGECHCGECKCHAGYIGDNCNCSTDISTCRGRDGQICSERGHCLCGQCQCTEPGAFGEMCEKCPTCPDACSTKRDCVECLLLHSGKPDNQTCHSLCRDEVITWVDTIVKDDQEAVLCFYKTAKDCVMMFTYVELPSGKSNLTVLREPECGNTPNAMTILLAVVGSILLVGLALLAIWKLLVTIHDRREFAKFQSERSRARYEMASNPLYRKPISTHTVDFTFNKFNKSYNGTVD
# B3: CPA2 (protein, UniProt P48052 115-419, looked up)
# Carboxypeptidase A2: SGNFNFGAYHTLEEISQEMDNLVAEHPGLVSKVNIGSSFENRPMNVLKFSTGGDKPAIWLDAGIHAREWVTQATALWTANKIVSDYGKDPSITSILDALDIFLLPVTNPDGYVFSQTKNRMWRKTRSKVSGSLCVGVDPNRNWDAGFGGPGASSNPCSDSYHGPSANSEVEVKSIVDFIKSHGKVKAFITLHSYSQLLMFPYGYKCTKLDDFDELSEVAQKAAQSLRSLHGTKYKVGPICSVIYQASGGSIDWSYDYGIKYSFAFELRDTGRYGFLLPARQILPTAEETWLGLKAIMEHVRDHPY
# B4: CD93 (protein, UniProt Q9NPY3 22-652, looked up)
# Complement component C1q …: TGADTEAVVCVGTACYTAHSGKLSAAEAQNHCNQNGGNLATVKSKEEAQHVQRVLAQLLRREAALTARMSKFWIGLQREKGKCLDPSLPLKGFSWVGGGEDTPYSNWHKELRNSCISKRCVSLLLDLSQPLLPSRLPKWSEGPCGSPGSPGSNIEGFVCKFSFKGMCRPLALGGPGQVTYTTPFQTTSSSLEAVPFASAANVACGEGDKDETQSHYFLCKEKAPDVFDWGSSGPLCVSPKYGCNFNNGGCHQDCFEGGDGSFLCGCRPGFRLLDDLVTCASRNPCSSSPCRGGATCVLGPHGKNYTCRCPQGYQLDSSQLDCVDVDECQDSPCAQECVNTPGGFRCECWVGYEPGGPGEGACQDVDECALGRSPCAQGCTNTDGSFHCSCEEGYVLAGEDGTQCQDVDECVGPGGPLCDSLCFNTQGSFHCGCLPGWVLAPNGVSCTMGPVSLGPPSGPPDEEDKGEKEGSTVPRAATASPTRGPEGTPKATPTTSRPSLSSDAPITSAPLKMLAPSGSPGVWREPSIHHATAASGPQEPAGGDSSVATQNNDGTDGQKLLLFYILGTVVAILLLLALALGLLVYRKRRAKREEKKEKKPQNAADSYSWVPERAESRAMENQYSPTPGTDC
# B5: NBN (protein, UniProt O60934 1-754, looked up)
# Nibrin: MWKLLPAAGPAGGEPYRLLTGVEYVVGRKNCAILIENDQSISRNHAVLTANFSVTNLSQTDEIPVLTLKDNSKYGTFVNEEKMQNGFSRTLKSGDGITFGVFGSKFRIEYEPLVACSSCLDVSGKTALNQAILQLGGFTVNNWTEECTHLVMVSVKVTIKTICALICGRPIVKPEYFTEFLKAVESKKQPPQIESFYPPLDEPSIGSKNVDLSGRQERKQIFKGKTFIFLNAKQHKKLSSAVVFGGGEARLITEENEEEHNFFLAPGTCVVDTGITNSQTLIPDCQKKWIQSIMDMLQRQGLRPIPEAEIGLAVIFMTTKNYCDPQGHPSTGLKTTTPGPSLSQGVSVDEKLMPSAPVNTTTYVADTESEQADTWDLSERPKEIKVSKMEQKFRMLSQDAPTVKESCKTSSNNNSMVSNTLAKMRIPNYQLSPTKLPSINKSKDRASQQQQTNSIRNYFQPSTKKRERDEENQEMSSCKSARIETSCSLLEQTQPATPSLWKNKEQHLSENEPVDTNSDNNLFTDTDLKSIVKNSASKSHAAEKLRSNKKREMDDVAIEDEVLEQLFKDTKPELEIDVKVQKQEEDVNVRKRPRMDIETNDTFSDEAVPESSKISQENEIGKKRELKEDSLWSAKEISNNDKLQDDSEMLPKKLLLTEFRSLVIKNSTSRNPSGINDDYGQLKNFKKFKKVTYPGAGKLPHIIGGSDLIAHHARKNTELEEWLRQEMEVQNQHAKEESLADDLFRYNPYLKRRR
# B6: Ep-CAM (protein, UniProt P16422 24-314, looked up)
# Epithelial cell adhesion …: QEECVCENYKLAVNCFVNNNRQCQCTSVGAQNTVICSKLAAKCLVMKAEMNGSKLGRRAKPEGALQNNDGLYDPDCDESGLFKAKQCNGTSMCWCVNTAGVRRTDKDTEITCSERVRTYWIIIELKHKAREKPYDSKSLRTALQKEITTRYQLDPKFITSILYENNVITIDLVQNSSQKTQNDVDIADVAYYFEKDVKGESLFHSKKMDLTVNGEQLDLDPGQTLIYYVDEKAPEFSMQGLKAGVIAVIVVVVIAVVAGIVVLVISRKKRMAKYEKAEIKEMGEMHRELNA
# B7: IRF9 (protein, UniProt Q00978 1-393, looked up)
# Interferon regulatory factor 9: MASGRARCTRKLRNWVVEQVESGQFPGVCWDDTAKTMFRIPWKHAGKQDFREDQDAAFFKAWAIFKGKYKEGDTGGPAVWKTRLRCALNKSSEFKEVPERGRMDVAEPYKVYQLLPPGIVSGQPGTQKVPSKRQHSSVSSERKEEEDAMQNCTLSPSVLQDSLNNEEEGASGGAVHSDIGSSSSSSSPEPQEVTDTTEAPFQGDQRSLEFLLPPEPDYSLLLTFIYNGRVVGEAQVQSLDCRLVAEPSGSESSMEQVLFPKPGPLEPTQRLLSQLERGILVASNPRGLFVQRLCPIPISWNAPQAPPGPGPHLLPSNECVELFRTAYFCRDLVRYFQGLGPPPKFQVTLNFWEESHGSSHTPQNLITVKMEQAFARYLLEQTPEQQAAILSLV
# B8: GPNMB (protein, UniProt Q14956 23-572, looked up)
# Transmembrane glycoprotein NMB: KRFHDVLGNERPSAYMREHNQLNGWSSDENDWNEKLYPVWKRGDMRWKNSWKGGRVQAVLTSDSPALVGSNITFAVNLIFPRCQKEDANGNIVYEKNCRNEAGLSADPYVYNWTAWSEDSDGENGTGQSHHNVFPDGKPFPHHPGWRRWNFIYVFHTLGQYFQKLGRCSVRVSVNTANVTLGPQLMEVTVYRRHGRAYVPIAQVKDVYVVTDQIPVFVTMFQKNDRNSSDETFLKDLPIMFDVLIHDPSHFLNYSTINYKWSFGDNTGLFVSTNHTVNHTYVLNGTFSLNLTVKAAAPGPCPPPPPPPRPSKPTPSLATTLKSYDSNTPGPAGDNPLELSRIPDENCQINRYGHFQATITIVEGILEVNIIQMTDVLMPVPWPESSLIDFVVTCQGSIPTEVCTIISDPTCEITQNTVCSPVDVDEMCLLTVRRTFNGSGTYCVNLTLGDDTSLALTSTLISVPDRDPASPLRMANSALISVGCLAIFVTVISLLVYKKHKEYNPIENSPGNVVRSKGLSVFLNRAKAVFFPGNQEKDPLLKNQEFKGVS
# Tested on: plasma proteins
# Assay: Plasma proteins modulated between baseline and day 28 in responders (CR, VGPR, PR; n = 19), Example 6 (Table 13)
# Assay type: in vivo, human
# Conditions: plasma protein (OLINK NPX); responders (CR, VGPR, PR; n = 19); itacitinib 200 mg or 300 mg QD with corticosteroids; day 28 vs baseline
# Procedure, shortened: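 Longitudinal comparison, day 28 versus baseline, with steroid-naive (N=10) and steroid-refractory (N=18) patients combined. Proteins measured by OLINK proximity extension, log2 normalized protein expression. Differences tested by t tests, ANOVA, Pearson correlation, P<0.05 significant.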
molecule,measurement,value
B1,"Fold Change, Decreased Expression from Baseline to Day 28",−1.5278
B2,"Fold Change, Increased Expression from Baseline to Day 28",1.229
B3,"Fold Change, Increased Expression from Baseline to Day 28",1.7185
B4,"Fold Change, Decreased Expression from Baseline to Day 28",−1.3029
B5,"Fold Change, Decreased Expression from Baseline to Day 28",−1.5879
B6,"Fold Change, Increased Expression from Baseline to Day 28",1.403
B7,"Fold Change, Decreased Expression from Baseline to Day 28",−1.4384
B8,"Fold Change, Increased Expression from Baseline to Day 28",1.2117
